Data from publication doi:10.1101/2023.08.15.553295 (bioRxiv, 2023).
Ends that are not written are not given here.

B1: unlabeled MAGEA3 C-terminal degron peptide (peptide)
peptide: LHEWVLREGEE
B2: FITC-labeled CCT5 C-terminal degron peptide (peptide)
peptide: IRKPGESEE
modifications: also: FITC label, position not given here
B3: NanoLuc-MAGEA3 full length (natural protein)
chain: MPLEQRSQHCKPEEGLEARGEALGLVGAQAPATEEQEAASSSSTLVEVTLGEVPAAESPDPPQSPQGASSLPTTMNYPLWSQSYEDSSNQEEEGPSTFPDLESEFQAALSRKVAELVHFLLLKYRAREPVTKAEMLGSVVGNWQYFFPVIFSKASSSLQLVFGIELMEVDPIGHLYIFATCLGLSYDGLLGDNQIMPKAGLLIIVLAIIAREGDCAPEEKIWEELSVLEVFEGREDSILGDPKKLLTQHFVQENYLEYRQVPGSDPACYEFLWGPRALVETSYVKVLHHMVKISGGPHISYPPLHEWVLREGEE
B4: unlabeled CCT5 C-terminal degron peptide (peptide)
peptide: IRKPGESEE
B5: FITC-labeled MAGEA3 C-terminal degron peptide (peptide)
peptide: LHEWVLREGEE
modifications: also: FITC label, position not given here

Legend:
[1] = target: biotinylated DCAF12 (Δ1-78) (human, UniProt Q5T6F0 79-453, biotin); assay: SPR
[2] = target: T1, DCAF12 (Δ1-78) (human, UniProt Q5T6F0 79-453); assay: fluorescence polarisation
[3] = target: T1, DCAF12 (Δ1-78); assay: fluorescence polarisation; remark: listed apart in the source
[4] = target: HaloTag-DCAF12 wild type (human, UniProt Q5T6F0 1-453); assay: FRET or BRET
HaloTag-DCAF12 wild type, sequence (Q5T6F0 whole entry): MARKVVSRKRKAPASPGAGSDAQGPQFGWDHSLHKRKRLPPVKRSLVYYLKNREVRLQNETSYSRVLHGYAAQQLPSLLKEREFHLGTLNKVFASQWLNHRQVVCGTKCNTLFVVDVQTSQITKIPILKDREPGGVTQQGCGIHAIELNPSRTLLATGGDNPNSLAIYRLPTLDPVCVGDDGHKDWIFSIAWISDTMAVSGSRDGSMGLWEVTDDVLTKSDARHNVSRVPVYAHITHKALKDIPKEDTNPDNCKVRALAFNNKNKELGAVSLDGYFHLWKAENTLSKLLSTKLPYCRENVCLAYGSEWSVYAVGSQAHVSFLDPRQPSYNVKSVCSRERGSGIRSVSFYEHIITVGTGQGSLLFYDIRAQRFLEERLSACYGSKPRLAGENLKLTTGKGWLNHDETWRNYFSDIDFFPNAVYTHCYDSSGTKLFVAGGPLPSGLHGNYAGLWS

T1 sequence (Q5T6F0 79-453, stated change not applied): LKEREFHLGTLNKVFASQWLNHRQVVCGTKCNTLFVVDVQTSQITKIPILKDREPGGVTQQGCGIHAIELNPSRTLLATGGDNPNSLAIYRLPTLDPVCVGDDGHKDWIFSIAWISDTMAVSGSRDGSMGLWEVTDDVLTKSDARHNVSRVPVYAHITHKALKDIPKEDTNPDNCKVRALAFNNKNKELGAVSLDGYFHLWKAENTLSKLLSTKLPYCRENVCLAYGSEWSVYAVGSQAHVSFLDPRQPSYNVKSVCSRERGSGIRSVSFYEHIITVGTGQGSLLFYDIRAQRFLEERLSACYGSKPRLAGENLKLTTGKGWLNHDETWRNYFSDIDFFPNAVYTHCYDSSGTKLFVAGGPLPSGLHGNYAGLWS
biotinylated DCAF12 (Δ1-78), sequence (Q5T6F0 79-453, stated change not applied): as above

Binder | binding result [1] | binding result [2] | Kd [3] [nM] | BRET signal, fold over the negative control [4] [fold]
B1 | binds | binds |  | 
B2 |  |  | < 370 | 
B3 |  |  |  | 22
B4 | binds | binds |  | 
B5 |  |  | < 370 | 
